We go through four molecules from publication PMC11649690, “CEP signaling coordinates plant immunity with nitrogen status” (Nature Communications, 2024).

Non-standard residues stand in square brackets, D forms with d. No end group written: not given here. Hyp = O=C(O)[C@@H]1C[C@@H](O)CN1

One may read the Kd as the concentration at which binding is half-saturated.

For experiment [1], the system named is cytosolic calcium concentrations ([Ca^2+]cyt), Col-0^AEQ seedlings. Description: Calcium influx assay (aequorin seedlings). Conditions: wild type, 30 min. Format: in vivo, Arabidopsis thaliana. As to the method: Apoaequorin-expressing liquid-grown eight-day-old seedlings were transferred individually to a 96-well plate containing 100 µl of 5 µM coelenterazine-h (PJK Biotech, Germany) and incubated in the dark overnight. Luminescence was measured using a plate reader (Luminoskan Ascent 2.1, Thermo Fisher Scientific, USA). Background luminescence was recorded by scanning each well 12 times at 10 s intervals, before adding a 25 µl elicitor solution to the indicated final concentration. Luminescence was recorded for 30 min at the same interval. The remaining aequorin was discharged using 2 M CaCl2, 20% ethanol. The values for cytosolic Ca^2+ concentrations ([Ca^2+]cyt) were calculated as luminescence counts per second relative to total luminescence counts remaining (L/Lmax).

The target in experiment [2] is T1, CEP RECEPTOR 2 ectodomain (CEPR2^ECD) (Arabidopsis thaliana, UniProt Q9C7T7 32-620).
T1 construct: CEPR2, Arabidopsis thaliana, ectodomain, residues 32 to 620; Secreted with a 30 K signal peptide from the modified pFastBAC vector; a TEV site stood before the StrepII-9xHis tag, so residues of the site may be left after cleavage; source: Trichoplusia ni Tnao38 cells, secreted, purified (Ni2+, Strep-Tactin, TEV, SEC); not shown: StrepII, C-terminal, cleaved; His9, C-terminal, cleaved
T1 sequence (looked up): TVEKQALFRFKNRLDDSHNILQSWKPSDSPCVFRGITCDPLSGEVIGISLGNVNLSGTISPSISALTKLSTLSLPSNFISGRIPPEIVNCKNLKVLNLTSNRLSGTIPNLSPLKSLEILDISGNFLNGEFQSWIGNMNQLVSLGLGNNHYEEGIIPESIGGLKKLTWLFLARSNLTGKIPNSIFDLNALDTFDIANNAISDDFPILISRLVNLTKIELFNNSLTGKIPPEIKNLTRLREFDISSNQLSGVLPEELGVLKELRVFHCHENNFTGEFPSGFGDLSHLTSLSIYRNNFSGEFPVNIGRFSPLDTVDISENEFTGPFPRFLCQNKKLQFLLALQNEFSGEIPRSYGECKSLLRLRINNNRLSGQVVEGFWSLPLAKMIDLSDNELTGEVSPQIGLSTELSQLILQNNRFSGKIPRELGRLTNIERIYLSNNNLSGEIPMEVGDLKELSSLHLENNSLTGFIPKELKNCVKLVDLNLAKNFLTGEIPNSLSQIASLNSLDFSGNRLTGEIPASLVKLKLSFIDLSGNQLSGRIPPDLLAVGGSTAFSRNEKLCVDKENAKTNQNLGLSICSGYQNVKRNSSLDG
As to the kind of experiment: ITC; 300 μM peptide in the syringe injected into 30 μM receptor ectodomain in the cell; 25 °C; 20 mM citrate pH 5.0, 150 mM NaCl (SEC buffer); N fitted to 1; duplicates. As to conditions: both partners purified. Background: In ITC the heat of successive injections is recorded.

Experiment [3] addresses T2, RECEPTOR-LIKE KINASE 7 ectodomain (RLK7^ECD) (Arabidopsis thaliana, UniProt F4I2N7 29-608).
T2 construct: RLK7, Arabidopsis thaliana, ectodomain, residues 29 to 608; Secreted with a 30 K signal peptide from the modified pFastBAC vector; a TEV site stood before the StrepII-9xHis tag, so residues of the site may be left after cleavage; source: Trichoplusia ni Tnao38 cells, secreted, purified (Ni2+, Strep-Tactin, TEV, SEC); not shown: StrepII, C-terminal, cleaved; His9, C-terminal, cleaved
T2 sequence (looked up): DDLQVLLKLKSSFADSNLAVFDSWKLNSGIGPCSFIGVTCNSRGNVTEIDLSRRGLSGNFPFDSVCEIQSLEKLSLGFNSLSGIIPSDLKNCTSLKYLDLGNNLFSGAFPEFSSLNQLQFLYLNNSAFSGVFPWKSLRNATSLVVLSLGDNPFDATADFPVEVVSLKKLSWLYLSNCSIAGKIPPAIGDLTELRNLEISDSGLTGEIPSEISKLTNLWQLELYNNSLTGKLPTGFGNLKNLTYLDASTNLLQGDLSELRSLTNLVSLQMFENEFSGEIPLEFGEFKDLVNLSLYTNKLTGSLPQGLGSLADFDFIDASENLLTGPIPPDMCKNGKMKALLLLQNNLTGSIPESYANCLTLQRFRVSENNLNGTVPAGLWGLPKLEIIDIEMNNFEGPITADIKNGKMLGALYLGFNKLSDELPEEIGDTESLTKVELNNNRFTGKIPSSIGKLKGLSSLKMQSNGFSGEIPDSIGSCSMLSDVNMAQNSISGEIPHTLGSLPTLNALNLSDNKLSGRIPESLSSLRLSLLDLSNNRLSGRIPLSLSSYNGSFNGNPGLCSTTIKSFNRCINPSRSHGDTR
The description is as above. As to conditions: both partners purified.

With “AFR[Hyp]THQG[Hyp]SQGIGH [CEP4-15mer, 15mer peptide lacking the N-terminal D residue]”, the calcium influx entry in experiment [1] is “triggered a dose-dependent calcium influx with no significant differences to the response elicited by the 16mer peptide”.

B1: C-… ENCODED PEPTIDE 4 (CEP4), 16mer (peptide)
peptide: DAFR[Hyp]THQG[Hyp]SQGIGH
notes: CEP4 peptide domain of the CEP4 precursor, Arabidopsis thaliana (AT2G35612); 16mer with N-terminal D and C-terminal H; a 15mer without the N-terminal D is reported only for calcium influx; source: synthetic peptide (Pepmic, at least 90% purity)
Consider B1, for which the results for the Kd in experiment [2] and in experiment [3] were 15.7 µM and 9 µM, respectively.

B2: C-… ENCODED PEPTIDE 1 (CEP1) (peptide, UniProt Q8L8Y3 72-86, looked up)
peptide: DFRPTNPGNSPGVGH
notes: CEP1 peptide, the mature CEP domain cut from the CEP1 precursor, Arabidopsis thaliana; source: synthetic peptide (Pepmic, at least 90% purity)
In experiment [2], B2 gave a Kd of 9.3 µM.

As to RLASG[Hyp]SPRGRGH [PAMP-INDUCED PEPTIDE 1 (PIP1)], binding in experiment [3] was characterised by a dissociation constant (Kd) of 0.5 µM.
